Assay results reported in patent US20240247069A1 (Regeneron, published 2024).

What was measured:
human FGFR3b-ecto.mmH = molecular target: T1, human FGFR3b-ecto.mmH (human, UniProt P22607 23-806); experiment: Biacore SPR, 25 C, mmh-tagged FGFR3
T1 construct: also called hFGFR3b (mmh); hFGFR3b-mmh; not shown: mmh tag

mouse FGFR3b-ecto.mmH = molecular target: T2, mouse FGFR3b-ecto.mmH (mouse, UniProt Q61851 21-801); experiment: Biacore SPR, 25 C, mmh-tagged FGFR3
T2 construct: also called moFGFR3b (mmh); monomeric mouse FGFR3b; not shown: mmh tag
T2 sequence (Q61851 other isoform, or with tags, fused parts or gaps): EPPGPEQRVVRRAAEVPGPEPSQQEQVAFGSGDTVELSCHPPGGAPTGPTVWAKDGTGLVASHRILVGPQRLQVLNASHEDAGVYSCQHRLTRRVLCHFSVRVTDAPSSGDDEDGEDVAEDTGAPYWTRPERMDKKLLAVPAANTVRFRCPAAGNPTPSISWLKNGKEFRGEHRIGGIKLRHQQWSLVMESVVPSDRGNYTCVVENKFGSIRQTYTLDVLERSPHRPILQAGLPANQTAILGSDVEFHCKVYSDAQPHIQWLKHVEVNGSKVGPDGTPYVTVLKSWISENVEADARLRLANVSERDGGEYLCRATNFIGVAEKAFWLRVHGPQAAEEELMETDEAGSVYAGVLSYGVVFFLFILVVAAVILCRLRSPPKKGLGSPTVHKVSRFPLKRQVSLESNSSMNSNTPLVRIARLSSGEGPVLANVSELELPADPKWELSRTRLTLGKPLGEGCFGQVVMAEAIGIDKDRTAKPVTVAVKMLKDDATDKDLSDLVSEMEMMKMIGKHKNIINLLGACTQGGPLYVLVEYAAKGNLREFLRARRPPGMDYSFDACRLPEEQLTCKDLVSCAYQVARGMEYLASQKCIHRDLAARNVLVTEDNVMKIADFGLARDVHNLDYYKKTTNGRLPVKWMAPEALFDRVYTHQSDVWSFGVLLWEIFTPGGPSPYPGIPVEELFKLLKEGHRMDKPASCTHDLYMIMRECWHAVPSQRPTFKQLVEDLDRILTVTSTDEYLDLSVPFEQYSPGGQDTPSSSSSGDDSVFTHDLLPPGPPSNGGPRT

T1 sequence (P22607 other isoform, or with tags, fused parts or gaps): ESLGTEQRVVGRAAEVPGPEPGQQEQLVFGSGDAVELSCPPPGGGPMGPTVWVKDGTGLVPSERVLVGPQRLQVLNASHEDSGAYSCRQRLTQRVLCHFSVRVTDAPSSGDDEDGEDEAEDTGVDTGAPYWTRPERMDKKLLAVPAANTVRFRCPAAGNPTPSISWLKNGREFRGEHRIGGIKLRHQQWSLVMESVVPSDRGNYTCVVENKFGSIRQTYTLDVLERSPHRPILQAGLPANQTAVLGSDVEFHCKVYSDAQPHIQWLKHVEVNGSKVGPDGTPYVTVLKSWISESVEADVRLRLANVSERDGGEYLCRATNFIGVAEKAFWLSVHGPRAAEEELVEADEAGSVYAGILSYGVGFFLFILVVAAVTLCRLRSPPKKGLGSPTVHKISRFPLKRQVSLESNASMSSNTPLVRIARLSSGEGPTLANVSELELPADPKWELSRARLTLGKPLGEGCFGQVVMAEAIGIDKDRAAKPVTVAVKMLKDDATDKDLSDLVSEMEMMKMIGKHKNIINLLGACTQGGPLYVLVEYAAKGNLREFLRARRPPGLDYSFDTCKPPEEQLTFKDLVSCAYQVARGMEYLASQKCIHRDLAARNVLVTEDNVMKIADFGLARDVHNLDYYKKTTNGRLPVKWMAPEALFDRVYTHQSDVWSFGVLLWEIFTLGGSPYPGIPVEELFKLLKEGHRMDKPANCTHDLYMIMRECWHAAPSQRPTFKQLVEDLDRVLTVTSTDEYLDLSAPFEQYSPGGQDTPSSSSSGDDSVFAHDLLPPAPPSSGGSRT

Kd (human FGFR3b-ecto.mmH): 1.8 nM
Kd (mouse FGFR3b-ecto.mmH): 1.27 nM
B1: H4H30063P (antibody, V domains shown)
VH: QVQLQESGPGLVKPSETLSLTCTVSGDSINSYFWSWIRQLPGKELEWIGHIYSSGSTRYNPSLQSRVTISIDTSKNQFSLKLSSVTAADTAVYYCARGASAVDYWGQGTLVTVSS
VL: EIVLTQSPGTLSLSPGERATLSCRTSQSISSGYLAWYQQKPGQAPRLLIYGASRRATGIPDRFSGSGSGTDFTLTISRLEPEDFVVYYCQQYGSSPYTFGQGTKLEIKR
